Measured values taken from IntAct's records for PubMed 18093972.

B1: Homeodomain-interacting protein kinase 2 (Mus musculus), Q9QZR5 (parent)
chain: MAPVYEGMASHVQVFSPHTLQSSAFCSVKKLKVEPSSNWDMTGYGSHSKVYSQSKNIPPSQPASTTVSTSLPIPNPSLPYEQTIIFPGSTGHIVVTSASSTSVTGQVLGGPHNLMRRSTVSLLDTYQKCGLKRKSEEIENTSSVQIIEEHPPMIQNNASGATVATATTSTATSKNSGSNSEGDYQLVQHEVLCSMTNTYEVLEFLGRGTFGQVVKCWKRGTNEIVAIKILKNHPSYARQGQIEVSILARLSTESADDYNFVRAYECFQHKNHTCLVFEMLEQNLYDFLKQNKFSPLPLKYIRPVLQQVATALMKLKSLGLIHADLKPENIMLVDPSRQPYRVKVIDFGSASHVSKAVCSTYLQSRYYRAPEIILGLPFCEAIDMWSLGCVIAELFLGWPLYPGASEYDQIRYISQTQGLPAEYLLSAGTKTTRFFNRDTDSPYPLWRLKTPDDHEAETGIKSKEARKYIFNCLDDMAQVNMTTDLEGSDMLVEKADRREFIDLLKKMLTIDADKRVTPIETLNHPFVTMTHLLDFPHSAHVKSCFQNMEICKRRVNMYDTVNQSKTPFITHVAPSTSTNLTMTFNNQLTTVHNQAPTTSSATLSLANPEVSILNYQSALYQPSAASMAAVAPRSMPLQTGTAQICARPDPFQQALIVCPPGFQGLQASPSKHAGYSVRMENAVPIVTQAPGAQPLQIQPGLLAQQAWPGGAQQILLPPAWQQLTGVATHTSVQHAAVIPETMAGTQQLADWRNTHAHGSHYNPIMQQPALLTGHVTLPAAQPLNVGVAHVMRQQPTSTTSSRKSKQHQSSVRNVSTCEVTSSQAISSPQRSKRVKENTPPRCAMVHSSPACSTSVTCGWGDVASSTTRERQRQTIVIPDTPSPTVSVITISSDTDEEEEQKHAPTSTVSKQRKNVISCVTVHDSPYSDSSSNTSPYSVQQRTGHNGTNTLDTKGGLENHCTGNPRTIIVPPLKTQASEVLVECDSLGPAISASHHSSSFKSKSSSTVTSTSGHSSGSSSGAIAYRQQRPGPHFQQQQPLNLSQAQQHMAADRTGSHRRQQAYITPTMAQAPYTFPHNSPSHGTVHPHLAAAAHLPTQPHLYTYTAPTALGSTGTVAHLVASQGSARHTVQHTAYPASIVHQVPVSMGPRVLPSPTIHPSQYPAQFAHQTYISASPASTVYTGYPLSPAKVNQYPYI
partner: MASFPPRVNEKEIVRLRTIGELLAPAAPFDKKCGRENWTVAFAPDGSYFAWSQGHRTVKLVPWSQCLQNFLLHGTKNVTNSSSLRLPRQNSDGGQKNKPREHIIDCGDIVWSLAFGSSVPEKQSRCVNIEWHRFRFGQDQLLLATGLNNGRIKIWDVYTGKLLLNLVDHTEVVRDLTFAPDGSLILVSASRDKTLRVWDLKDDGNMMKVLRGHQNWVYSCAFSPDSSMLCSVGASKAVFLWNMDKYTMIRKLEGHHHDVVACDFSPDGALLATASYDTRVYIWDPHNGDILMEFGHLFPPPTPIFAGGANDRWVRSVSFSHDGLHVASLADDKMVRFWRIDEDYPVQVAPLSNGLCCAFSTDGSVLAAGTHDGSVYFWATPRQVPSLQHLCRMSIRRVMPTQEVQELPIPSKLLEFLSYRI

Variants of: B1
Settings: with wsb1_human WSB1, Q9Y6I7

effect of a mutation on the interaction | Variant
increasing interaction | K228R
